Substitutions are numbered along the chain they refer to. Names may count otherwise. Like-named read-outs stand apart in the source and are kept apart here. Each block holds one binder with its values, some of them ahead of it.
Columns and labels:
[1] = target: T1, Human CLEC12A-His (human, UniProt Q5QGZ9 65-265); experiment: SPR Biacore 8K 37 C; TriNKET captured on anti-hFc chip, hCLEC12A-His as analyte; 1:1 fit; after 4 wks 2-8 C in CST pH 7.0, n=2
T1 construct: Recombinant soluble protein made in house (Dragonfly Tx); The hCLEC12A spot of the HuProt array is written under this molecule as well; also called hCLEC12A-His; hCLEC12A; not shown: His tag
T1 sequence: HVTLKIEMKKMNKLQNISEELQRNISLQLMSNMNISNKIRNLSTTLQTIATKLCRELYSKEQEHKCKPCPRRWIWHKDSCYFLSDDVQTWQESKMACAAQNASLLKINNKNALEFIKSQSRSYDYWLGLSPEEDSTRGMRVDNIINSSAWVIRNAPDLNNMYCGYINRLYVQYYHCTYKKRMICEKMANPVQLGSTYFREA

[2] = target: T1, Human CLEC12A-His; experiment: SPR Biacore 8K 37 C; TriNKET captured on anti-hFc chip, hCLEC12A-His as analyte; 1:1 fit; control sample, n=2
Method: (§1) Briefly, human Fc specific antibodies were covalently immobilized at a density ˜8000-10000 resonance units (RU) on carboxy methyl dextran matrix of a CM5 biosensor chip via amine-coupling chemistry to create an anti-hFc IgG chip. […] Association was monitored for 300 seconds and dissociation was monitored for 600 seconds. Surfaces were regenerated between cycles with three pulses of 10 mM glycine-HCl, pH 1.7 injected for 20 seconds at 100 μL/min. HBS-EP+ (1×) with 0.1 mg/mL BSA buffer was used throughout the experiment. Data were analyzed using Biacore 8K Insight evaluation software (GE Healthcare). The kinetic rate constants and overall affinity were obtained using 1:1 kinetic fit binding model (FIGS. 71A-71B).

[3] = target: T1, Human CLEC12A-His; experiment: SPR Biacore 8K 37 C; TriNKET captured on anti-hFc chip, hCLEC12A-His as analyte; 1:1 fit; after 0.02% H2O2 24 h, n=2
Method: as §1

[4] = target: T2, Human CD16a V158 (FcγRIIIa V158) (human, UniProt P08637 17-208, biotinylated (site not stated)); experiment: SPR; biotinylated CD16a V158 captured on SA chip, TriNKET as analyte; 1:1 kinetic fit; after 4 wks 40 C in HST pH 6.0, n=3
T2 construct: V158 is the allele name in mature numbering; also called hCD16aV; hCD16a V158

[5] = target: T3, Human CD16a V158 (human, UniProt P08637 17-208, biotinylated); experiment: SPR; control sample (low pH hold study)
T3 construct: Bought recombinant receptor; also called hCD16a (V158); hFcγRIIIa V158

[6] = target: T4, Human CLEC12A-His (human, UniProt Q5QGZ9 65-265); experiment: SPR; control sample (low pH hold study)
T4 construct: Recombinant soluble protein made in house; also called hCLEC12A-His; hCLEC12A; not shown: His tag
T4 sequence: T1 sequence

[7] = target: T5, mFc-hNKG2D (human, UniProt P26718 73-216); experiment: SPR; control sample (low pH hold study)
T5 construct: extracellular domain; Recombinant mFc-tagged NKG2D dimer, made in house; also called human NKG2D; not shown: mouse Fc tag
T5 sequence (looked up): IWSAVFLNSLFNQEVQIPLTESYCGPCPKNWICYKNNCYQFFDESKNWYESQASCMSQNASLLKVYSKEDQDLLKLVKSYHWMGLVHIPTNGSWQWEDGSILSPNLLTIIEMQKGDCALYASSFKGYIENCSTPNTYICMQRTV

[8] = target: T6, Human CD32a R131 (human, UniProt P12318 36-218, limits assumed, biotinylated); experiment: SPR, steady state fit; average for AB0192
T6 construct: Bought recombinant receptor; also called hFcγRIIa R131
T6 sequence (looked up): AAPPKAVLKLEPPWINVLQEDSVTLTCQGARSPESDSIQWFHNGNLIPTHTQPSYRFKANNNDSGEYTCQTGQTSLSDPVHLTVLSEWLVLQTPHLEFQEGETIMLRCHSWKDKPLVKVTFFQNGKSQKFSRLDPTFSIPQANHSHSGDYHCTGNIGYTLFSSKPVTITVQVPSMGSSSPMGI

[9] = target: T7, Cynomolgus FcRn (cynomolgus monkey, UniProt Q8SPV9 24-297; Q8SPW0 21-119); experiment: SPR 25C, pH 6.0, FcRn on chip, steady state fit (n = 3)
T7 construct: Bought recombinant receptor; also called cFcRn; cyno FcRn
Method: Recombinant human or cynomolgus monkey (cyno) FcRn was captured on a surface of an SA series S chip at a concentration of 0.25 μg/mL for 1 minute. […] Each FcRn binding experiment consisted of multiple cycles utilizing varying concentrations of analytes. […] 0 nM blank cycle placed at the start of each concentration series and a blank amine coupling modified chip surface lacking FcRn were used for referencing. Each experimental cycle included association, dissociation and regeneration steps. The association step consisted of 60 sec analyte injection and was followed by a 60 sec dissociation step. Surface regeneration (60 sec injection of HBS-EP+ buffer, pH 7.4) completed each kinetic cycle. All steps were executed at a flow rate of 30 μL/min and at 25° C. MBS-EP+ buffer, pH 6.0 was used as a running buffer. The data were fitted to a steady state affinity model with Biacore Insight evaluation software. Chi² (calculated by the software) related to the calculated Rₘₐₓ was used to assess goodness of the fit. All reported values were rounded to one decimal place.

[10] = target: T8, Human CLEC12A-His (recombinant, K244 WT) (human, UniProt Q5QGZ9 65-265); experiment: SPR, two-state fit (ka1); after pH 8, 40C, 2 wks
T8 construct: Made in house (Dragonfly Tx); also called hCLEC12A; hCLEC12A-His; not shown: His tag
T8 sequence: T1 sequence

[11] = target: T8, Human CLEC12A-His (recombinant, K244 WT); experiment: SPR, two-state fit (kd1); control sample
Method: (§2) Briefly, human Fc specific antibodies were covalently immobilized at a density ˜8000-10000 resonance units (RU) on carboxy methyl dextran matrix of a CM5 biosensor chip via amine-coupling chemistry to create an anti-hFc IgG chip. […] Association was monitored for 300 seconds and dissociation was monitored for 600 seconds. Surfaces were regenerated between cycles with three pulses of 10 mM glycine-HCl, pH 1.7 injected for 20 seconds at 100 μl/min. HBS-EP+ (1×) with 0.1 mg/ml BSA was used as running buffer throughout the experiment. Experiments were performed at physiological temperature of 37° C. To obtain kinetic rate constants and overall binding affinity, double-referenced data were fit to a two-state kinetic model using Biacore 8K Insight Evaluation software (Cytiva).

[12] = target: T8, Human CLEC12A-His (recombinant, K244 WT); experiment: SPR, two-state fit (kd1); control sample; remark: listed apart in the source
Method: as §2

[13] = target: T9, human CLEC12A expressed on cells (human, UniProt Q5QGZ9 1-265); experiment: flow cytometry (gMFI) on CLEC12A+ PL-21 AML cells
T9 construct: Transduced isogenic cells or endogenous expression on AML cells; also called RMA-hCLEC12A; Ba/F3-hCLEC12A
T9 sequence: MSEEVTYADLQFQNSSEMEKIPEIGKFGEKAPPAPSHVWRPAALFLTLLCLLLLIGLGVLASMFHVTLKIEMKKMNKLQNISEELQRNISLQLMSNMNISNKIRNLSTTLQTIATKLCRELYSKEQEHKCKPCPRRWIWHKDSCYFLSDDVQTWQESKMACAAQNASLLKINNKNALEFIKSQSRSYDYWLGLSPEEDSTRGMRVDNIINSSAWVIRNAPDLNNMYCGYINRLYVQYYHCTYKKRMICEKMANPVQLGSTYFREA

[14] = target: T10, recombinant human FcRn (human, UniProt P55899 24-297; P61769 21-119); experiment: SPR 25C, pH 6.0, steady state; pH 6.0; second replicate
T10 construct: also called hFcRn

T2 sequence (P08637 17-208 F176V limits assumed): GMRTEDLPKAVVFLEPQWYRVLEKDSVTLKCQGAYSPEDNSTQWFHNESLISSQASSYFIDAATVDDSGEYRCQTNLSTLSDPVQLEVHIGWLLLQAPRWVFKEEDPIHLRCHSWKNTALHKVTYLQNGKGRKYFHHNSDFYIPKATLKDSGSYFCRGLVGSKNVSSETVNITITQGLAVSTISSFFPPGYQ
T3 sequence (P08637 17-208 F176V limits assumed): as above
T7 sequence (Q8SPV9 24-297 limits assumed, chain 1 of 2): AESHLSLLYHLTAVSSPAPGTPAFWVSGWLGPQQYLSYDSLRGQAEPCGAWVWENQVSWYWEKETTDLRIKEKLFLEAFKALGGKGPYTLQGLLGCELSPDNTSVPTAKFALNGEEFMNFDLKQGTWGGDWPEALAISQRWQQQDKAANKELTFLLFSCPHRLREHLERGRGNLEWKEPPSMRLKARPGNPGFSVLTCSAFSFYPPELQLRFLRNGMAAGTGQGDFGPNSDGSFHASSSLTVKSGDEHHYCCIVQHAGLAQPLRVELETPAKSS
T7 sequence (Q8SPW0 21-119 limits assumed, chain 2 of 2): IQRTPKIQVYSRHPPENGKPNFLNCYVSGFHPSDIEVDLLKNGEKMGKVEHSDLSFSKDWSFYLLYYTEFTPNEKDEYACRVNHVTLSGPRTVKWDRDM

B1: F3'-1602 TriNKET (bispecific antibody, human IgG1, kappa)
chain: QLQLQESGPGLVKPSETLSLTCTVSGFSLTNYGLHWIRQPPGKCLEWIGVIWSGGKTDYNPSLKSRVTISKDTSKNQFSLKLSSVQAADTAVYYCAKYDYDDSLDYWGQGTLVTVSSGGGGSGGGGSGGGGSGGGGSDIQMTQSPSSLSASVGDRVTITCHASQNINFWLSWYQQKPGKAPKLLIYEASNLHTGVPSRFSGSGSGTRFTLTISSLQPEDIATYYCQQSHSYPLTFGCGTKLEIKGSDKTHTCPPCPAPELLGGPSVFLFPPKPKDTLMISRTPEVTCVVVDVSHEDPEVKFNWYVDGVEVHNAKTKPREEQYNSTYRVVSVLTVLHQDWLNGKEYKCKVSNKALPAPIEKTISKAKGQPREPRVYTLPPCRDELTKNQVSLTCLVKGFYPSDIAVEWESNGQPENNYKTTPPVLVSDGSFTLYSKLTVDKSRWQQGNVFSCSVMHEALHNHYTQKSLSLSPG
heavy: EVQLVESGGGLVKPGGSLRLSCAASGFTFSSYSMNWVRQAPGKGLEWVSSISSSSSYIYYADSVKGRFTISRDNAKNSLYLQMNSLRAEDTAVYYCARGAPIGAAAGWFDPWGQGTLVTVSSASTKGPSVFPLAPSSKSTSGGTAALGCLVKDYFPEPVTVSWNSGALTSGVHTFPAVLQSSGLYSLSSVVTVPSSSLGTQTYICNVNHKPSNTKVDKKVEPKSCDKTHTCPPCPAPELLGGPSVFLFPPKPKDTLMISRTPEVTCVVVDVSHEDPEVKFNWYVDGVEVHNAKTKPREEQYNSTYRVVSVLTVLHQDWLNGKEYKCKVSNKALPAPIEKTISKAKGQPREPQVCTLPPSRDELTENQVSLTCLVKGFYPSDIAVEWESNGQPENNYKTTPPVLDSDGSFFLYSWLTVDKSRWQQGNVFSCSVMHEALHNHYTQKSLSLSPG
light: DIQMTQSPSSVSASVGDRVTITCRASQGISSWLAWYQQKPGKAPKLLIYAASSLQSGVPSRFSGSGSGTDFTLTISSLQPEDFATYYCQQGVSFPRTFGGGTKVEIKRTVAAPSVFIFPPSDEQLKSGTASVVCLLNNFYPREAKVQWKVDNALQSGNSQESVTEQDSKDSTYSLSSTLTLSKADYEKHKVYACEVTHQGLSSPVTKSFNRGEC
notes: Trispecific F3' format: CLEC12A scFv-Fc paired with NKG2D Fab-Fc; Stressed and control samples of the stability studies are the same molecule; also called AB0237
- Kd [1]: 0.91 nM
- koff [1]: 0.000708 s⁻¹
- kon [1]: 776000 M⁻¹ s⁻¹
- Kd [2]: 1.11 nM
- koff [2]: 0.000873 s⁻¹
- kon [2]: 791000 M⁻¹ s⁻¹
- Kd [3]: 1.1 nM
- koff [3]: 0.00087 s⁻¹
- kon [3]: 806000 M⁻¹ s⁻¹
- Kd [4]: 201 nM
- koff [4]: 0.0165 s⁻¹
- kon [4]: 82400 M⁻¹ s⁻¹

B4: F3'-1602 TriNKET (other)
chain: B1 chain
heavy: B1 heavy
light: B1 light
notes: CLEC12A scFv-Fc, NKG2D A49MI Fab-Fc, human IgG1 Fc; also called AB0237
- EC50 [13]: 1.2 nM
- Kd [14]: 1100 nM

Now from value to binder:

- Kd [5]: 178 nM
- koff [5]: 0.0199 s⁻¹
- kon [5]: 112000 M⁻¹ s⁻¹
- Kd [6]: 1.83 nM
- koff [6]: 0.00125 s⁻¹
- kon [6]: 685000 M⁻¹ s⁻¹
- Kd [7]: 779 nM
- koff [7]: 0.146 s⁻¹
- kon [7]: 188000 M⁻¹ s⁻¹
- Kd [8]: 1400 nM
B2: AB0192 TriNKET (other)
chain: EVQLVESGGGVVQPGGSLRLSCAASGFTFNAFGMHWVRQAPGKCLEWVAFISSGSTSIYYANTVKGRFTISRDNSKNTLYLQMNSLRAEDTAVYYCARDGYPTGGAMDYWGQGTSVTVSSGGGGSGGGGSGGGGSGGGGSDIQMTQSPSSLSASVGDRVTITCKASQDIYNYLSWFQQKPGKAPKPLIYRANILVSGVPSRFSGSGSGQDYTFTISSLQPEDIATYYCLQFDAFPFTFGCGTKLEIKGSDKTHTCPPCPAPELLGGPSVFLFPPKPKDTLMISRTPEVTCVVVDVSHEDPEVKFNWYVDGVEVHNAKTKPREEQYNSTYRVVSVLTVLHQDWLNGKEYKCKVSNKALPAPIEKTISKAKGQPREPRVYTLPPCRDELTKNQVSLTCLVKGFYPSDIAVEWESNGQPENNYKTTPPVLVSDGSFTLYSKLTVDKSRWQQGNVFSCSVMHEALHNHYTQKSLSLSPG
heavy: B1 heavy
light: B1 light
notes: the condition stands under assay; also called AB0192 Lot AB0192-005

- Kd [9]: 1000 nM
- kon [10]: 9.93e+06 M⁻¹ s⁻¹
- koff [11]: 0.0476 s⁻¹
- koff [12]: 0.0476 s⁻¹
B3: AB0089 TriNKET (bispecific antibody, human IgG1, kappa)
chain: B1 chain with S53V, K56A, K71V, Y98G, D101G, S103T, R207D, I220F
heavy: B1 heavy
light: B1 light
notes: F3' format heterodimer of three chains; human IgG1 Fc with EW-RVT and Y349C/S354C mutations; also called AB0089 Lot AB0089-002; CLEC12A TriNKET AB0089

Reference: patent US20220119534A1 (DRAGONFLY THERAPEUTICS, published 2022)
